Measured values from patent US20220144960A1 (NANJING LEGEND BIOTECH, published 2022).
Where two headings read alike, the source gives them in different places. Values belong to the binder of their own block, whether it stands above or below them.

What was measured:
[1] = biological target: T1, CD30 on CD30-expressing tumor cell lines (HH, MJ, H9) (UniProt P28908 19-595); assay: cell-based or functional assay
T1 sequence (looked up): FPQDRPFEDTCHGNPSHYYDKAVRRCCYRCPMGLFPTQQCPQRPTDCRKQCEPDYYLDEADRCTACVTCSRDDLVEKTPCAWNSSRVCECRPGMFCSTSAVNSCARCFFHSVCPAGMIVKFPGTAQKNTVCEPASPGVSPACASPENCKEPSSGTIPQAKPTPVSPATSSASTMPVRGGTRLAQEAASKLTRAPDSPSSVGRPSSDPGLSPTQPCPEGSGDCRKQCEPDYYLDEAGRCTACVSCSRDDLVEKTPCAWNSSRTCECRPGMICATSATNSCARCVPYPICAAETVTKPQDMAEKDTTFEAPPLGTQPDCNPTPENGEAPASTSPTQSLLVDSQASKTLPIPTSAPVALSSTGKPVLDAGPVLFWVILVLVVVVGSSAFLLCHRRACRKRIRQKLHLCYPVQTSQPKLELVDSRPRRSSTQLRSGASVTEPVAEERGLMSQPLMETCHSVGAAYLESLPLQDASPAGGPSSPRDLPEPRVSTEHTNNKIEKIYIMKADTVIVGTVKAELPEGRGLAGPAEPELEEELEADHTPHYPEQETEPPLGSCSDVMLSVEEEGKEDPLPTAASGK

[2] = biological target: T1, CD30 on CD30-expressing tumor cell …; assay: cell-based or functional assay; remark: listed apart in the source
rhesus CD30 ECD = biological target: T2, rhesus CD30 ECD (rhesus, UniProt P28908 19-379 (human entry)); assay: ELISA on rhesus CD30 ECD protein; member of the group by paragraph 437
T2 construct: Produced in house; also called recombinant rhesus CD30; rhesus CD30 protein
T2 chain: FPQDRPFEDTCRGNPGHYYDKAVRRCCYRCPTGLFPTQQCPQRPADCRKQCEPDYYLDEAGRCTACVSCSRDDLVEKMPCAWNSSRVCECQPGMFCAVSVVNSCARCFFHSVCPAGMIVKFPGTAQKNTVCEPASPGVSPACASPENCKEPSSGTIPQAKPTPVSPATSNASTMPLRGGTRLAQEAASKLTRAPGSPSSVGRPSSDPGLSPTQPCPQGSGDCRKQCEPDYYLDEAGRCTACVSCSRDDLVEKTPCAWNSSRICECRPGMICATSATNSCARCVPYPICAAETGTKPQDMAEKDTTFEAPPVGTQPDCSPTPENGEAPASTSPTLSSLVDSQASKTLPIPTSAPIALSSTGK

[3] = biological target: T3, recombinant human CD30 extra cellular domain (ECD) protein (human, UniProt P28908 19-379); assay: SPR Biacore T200, His-tagged sdAb/Fab captured, 100.0 nM human CD30 as analyte, single curve
T3 construct: Bought from R&D systems; also called rhCD30; human CD30 ECD
T3 sequence: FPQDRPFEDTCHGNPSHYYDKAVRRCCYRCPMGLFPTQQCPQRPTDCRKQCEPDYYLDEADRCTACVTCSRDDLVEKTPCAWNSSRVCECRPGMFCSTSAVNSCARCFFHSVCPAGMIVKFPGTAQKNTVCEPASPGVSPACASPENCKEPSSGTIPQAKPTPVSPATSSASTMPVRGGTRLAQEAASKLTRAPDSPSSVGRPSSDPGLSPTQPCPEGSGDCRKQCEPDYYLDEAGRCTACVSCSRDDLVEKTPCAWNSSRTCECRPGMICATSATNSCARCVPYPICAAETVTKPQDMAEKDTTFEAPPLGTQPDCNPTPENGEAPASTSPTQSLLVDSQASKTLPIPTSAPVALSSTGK
Experimental: Some of these unique binders were subjected to for further characterization by surface plasmon resonance (SPR) on a BIAcore T200 instrument (GE Healthcare). The experiment was carried out as follows. The crude sdAb/Fab proteins were captured through an affinity tag (6×Histidine tag) onto the sensorchip. High-concentration (100.0 nM) of human CD30 (R&D systems, Cat. #6126-CD) flowed over the sensorchip surface, and were allowed to bind the antibody fragments for 300 s followed by injection of the running buffer to allow dissociation of the complex. On-rate ([…] and off-rate (kd) were roughly calculated based on one association and dissociation curve, and were used to estimate the equilibrium dissociation constant (KD). 5F11 scFv (SEQ ID NO:216, prepared according to WO2017066122) was used as a positive control. Data were summarized in Table 3 below. The first 10 antibodies in Table 3 were sdAbs with amino acid sequence ID numbers summarized in Table 1, the last antibody was 5F11 scFv, and the remainings were human Fabs with CDR and scFv amino acid sequence ID numbers in Table 2.

[4] = biological target: T1, CD30 on CD30-expressing tumor cell …; assay: cell-based or functional assay; remark: listed apart in the source
[5] = biological target: T1, CD30 on CD30-expressing tumor cell …; assay: cell-based or functional assay; remark: listed apart in the source

% H9 cell lysis E:T = 2:1 (LDH assay, CAR T cells) [1]: 64%
% MJ cell lysis E:T = 1:1 (LDH assay, CAR T cells) [1]: 67%
B1: AS48463VH4bbz CAR (other)
chain: EVQLLESGGGLVQPGGSLRLSCAASGFTFANSDMGWYRQAPGKGCELVSIISSHGGTTYYVDSVKGRFTISRDNSKNTLYLQMNSLRAEDTAVYYCVADPRSNCRGGYCCGYWGQGTLVTVSSTTTPAPRPPTPAPTIASQPLSLRPEACRPAAGGAVHTRGLDFACDIYIWAPLAGTCGVLLLSLVITLYCKRGRKKLLYIFKQPFMRPVQTTQEEDGCSCRFPEEEEGGCELRVKFSRSADAPAYKQGQNQLYNELNLGRREEYDVLDKRRGRDPEMGGKPRRKNPQEGLYNELQKDKMAEAYSEIGMKGERRRGKGHDGLYQGLSTATKDTYDALHMQALPPR

% MJ cell lysis E:T = 0.5:1 (LDH assay, CAR T cells) [2]: 65%
B2: AS47863bbz CAR (other)
chain: QVQLEESGGGSVQAGETLRLSCTASGSTFGDSDMGWYRQAPGNACELVSIISSDGRTYYVDSVKGRFTISQDNAVSTVYLQMNSLKPEDTGVYYCAADLRQYCRDGRCCGYWGQGTQVTVSSTTTPAPRPPTPAPTIASQPLSLRPEACRPAAGGAVHTRGLDFACDIYIWAPLAGTCGVLLLSLVITLYCKRGRKKLLYIFKQPFMRPVQTTQEEDGCSCRFPEEEEGGCELRVKFSRSADAPAYKQGQNQLYNELNLGRREEYDVLDKRRGRDPEMGGKPRRKNPQEGLYNELQKDKMAEAYSEIGMKGERRRGKGHDGLYQGLSTATKDTYDALHMQALPPR

binding result (rhesus CD30 ECD): binds
Kd [3]: 95 nM
koff [3]: 0.0081 s⁻¹
kon [3]: 86000 M⁻¹ s⁻¹
rhCD30 Binding (RU) [3]: 26.3 RU
B3: AS48481 sdAb (VHH)
VHH: EVQLVASGGGSVQAGETLRLSCTASGFTFADSAMGWYRKGPGNVCDLVAIIRTDGTTYYGDSAKGRFTISRDNAKSTLYLQMNSLKPEDTAVYFCAADRETSFIGGSWCVAKYWDQGTQVTVSS
notes: Camel sdAb

% H9 cell lysis E:T = 0.2:1 (FACS method, CAR T cells) [4]: 41.6%
% MJ cell lysis E:T = 0.2:1 (FACS method, CAR T cells) [4]: 71.3%
% H9 cell lysis E:T = 2:1 (LDH assay, CAR T cells) [5]: 72%
% MJ cell lysis E:T = 1:1 (LDH assay, CAR T cells) [5]: 56%
B4: AS53574VH7-AS47863VH4bil-bbz CAR (other)
chain: EVQLVESGGGLVQPGGSLRLSCAASGYIYSSNCMGWFRQAPGKGREWVARIHTGSGSTYYADSVKGRFTISQDNSKNTLYLQMNSLRAEDTAVYDCAAGRVVLGAVVCTNEYWGQGTLVTVSSGGGGSGGGGSGGGGSEVQLVESGGGLVQPGGSLRLSCAASGSTFGDSDMGWYRQAPGKGCELVSIISSDGRTYYVDSVKGRFTISQDNSKNTLYLQMNSLRAEDTAVYYCAADLRQYCRDGRCCGYWGQGTLVTVSSTTTPAPRPPTPAPTIASQPLSLRPEACRPAAGGAVHTRGLDFACDIYIWAPLAGTCGVLLLSLVITLYCKRGRKKLLYIFKQPFMRPVQTTQEEDGCSCRFPEEEEGGCELRVKFSRSADAPAYKQGQNQLYNELNLGRREEYDVLDKRRGRDPEMGGKPRRKNPQEGLYNELQKDKMAEAYSEIGMKGERRRGKGHDGLYQGLSTATKDTYDALHMQALPPR

% H9 cell lysis E:T = 2:1 (LDH assay, CAR T cells) [1]: 62%
% MJ cell lysis E:T = 1:1 (LDH assay, CAR T cells) [1]: 65%
% H9 cell lysis E:T = 0.2:1 (FACS method, CAR T cells) [4]: 38%
% MJ cell lysis E:T = 0.2:1 (FACS method, CAR T cells) [4]: 58.6%
% H9 cell lysis E:T = 2:1 (LDH assay, CAR T cells) [5]: 62%
% MJ cell lysis E:T = 1:1 (LDH assay, CAR T cells) [5]: 65%
B5: AS48542VH5bbz CAR (other)
chain: EVQLVESGGGLVQPGGSLRLSCATSAFTFDGPDMAWYRQAPGKGCELVSIISADGRTYYADSVKGRFTISRDNSKNTVYLQMNSLRAEDTAVYYCALDPRKNCRGGYCCANWGQGTLVTVSSTTTPAPRPPTPAPTIASQPLSLRPEACRPAAGGAVHTRGLDFACDIYIWAPLAGTCGVLLLSLVITLYCKRGRKKLLYIFKQPFMRPVQTTQEEDGCSCRFPEEEEGGCELRVKFSRSADAPAYKQGQNQLYNELNLGRREEYDVLDKRRGRDPEMGGKPRRKNPQEGLYNELQKDKMAEAYSEIGMKGERRRGKGHDGLYQGLSTATKDTYDALHMQALPPR

% H9 cell lysis E:T = 0.2:1 (FACS method, CAR T cells) [4]: 38.3%
% MJ cell lysis E:T = 0.2:1 (FACS method, CAR T cells) [4]: 40.7%
% H9 cell lysis E:T = 2:1 (LDH assay, CAR T cells) [5]: 78%
% MJ cell lysis E:T = 1:1 (LDH assay, CAR T cells) [5]: 59%
B6: AS53574VH7-AS48463VH4bil-bbz CAR (other)
chain: EVQLVESGGGLVQPGGSLRLSCAASGYIYSSNCMGWFRQAPGKGREWVARIHTGSGSTYYADSVKGRFTISQDNSKNTLYLQMNSLRAEDTAVYDCAAGRVVLGAVVCTNEYWGQGTLVTVSSGGGGSGGGGSGGGGSEVQLLESGGGLVQPGGSLRLSCAASGFTFANSDMGWYRQAPGKGCELVSIISSHGGTTYYVDSVKGRFTISRDNSKNTLYLQMNSLRAEDTAVYYCVADPRSNCRGGYCCGYWGQGTLVTVSSTTTPAPRPPTPAPTIASQPLSLRPEACRPAAGGAVHTRGLDFACDIYIWAPLAGTCGVLLLSLVITLYCKRGRKKLLYIFKQPFMRPVQTTQEEDGCSCRFPEEEEGGCELRVKFSRSADAPAYKQGQNQLYNELNLGRREEYDVLDKRRGRDPEMGGKPRRKNPQEGLYNELQKDKMAEAYSEIGMKGERRRGKGHDGLYQGLSTATKDTYDALHMQALPPR

% MJ cell lysis E:T = 0.5:1 (LDH assay, CAR T cells) [2]: 43.9%
B7: AS57911bbz CAR (other)
chain: DIQMTQSPSSLSASVGDRVTITCRASQSVSSAVAWYQQKPGKAPKLLIYSASSLYSGVPSRFSGSRSGTDFTLTISSLQPEDFATYYCQQSHALITFGQGTKVEIKGGGGSGGGGSGGGGSEVQLVESGGGLVQPGGSLRLSCAASGFNISSSYIHWVRQAPGKGLEWVAYISSYYSYTYYADSVKGRFTISADTSKNTAYLQMNSLRAEDTAVYYCARGYPYGMDYWGQGTLVTVSSTTTPAPRPPTPAPTIASQPLSLRPEACRPAAGGAVHTRGLDFACDIYIWAPLAGTCGVLLLSLVITLYCKRGRKKLLYIFKQPFMRPVQTTQEEDGCSCRFPEEEEGGCELRVKFSRSADAPAYKQGQNQLYNELNLGRREEYDVLDKRRGRDPEMGGKPRRKNPQEGLYNELQKDKMAEAYSEIGMKGERRRGKGHDGLYQGLSTATKDTYDALHMQALPPR

% MJ cell lysis E:T = 0.5:1 (LDH assay, CAR T cells) [2]: 24.6%
B8: AS53445bbz CAR (other)
chain: QVQLVESGGGSVQAGGSLRLSCTASGYIFCMGWFRQAPGKAREGIATIYTGGDSTYYDDSVKGRFTISRDNAKNTVYLQMNSLKPEDTAMYYCAAGGQECYLTNWVSYWGQGTQVTVSSTTTPAPRPPTPAPTIASQPLSLRPEACRPAAGGAVHTRGLDFACDIYIWAPLAGTCGVLLLSLVITLYCKRGRKKLLYIFKQPFMRPVQTTQEEDGCSCRFPEEEEGGCELRVKFSRSADAPAYKQGQNQLYNELNLGRREEYDVLDKRRGRDPEMGGKPRRKNPQEGLYNELQKDKMAEAYSEIGMKGERRRGKGHDGLYQGLSTATKDTYDALHMQALPPR

% H9 cell lysis E:T = 2:1 (LDH assay, CAR T cells) [1]: 63%
% MJ cell lysis E:T = 1:1 (LDH assay, CAR T cells) [1]: 57%
B9: AS47863VH4bbz CAR (other)
chain: EVQLVESGGGLVQPGGSLRLSCAASGSTFGDSDMGWYRQAPGKGCELVSIISSDGRTYYVDSVKGRFTISQDNSKNTLYLQMNSLRAEDTAVYYCAADLRQYCRDGRCCGYWGQGTLVTVSSTTTPAPRPPTPAPTIASQPLSLRPEACRPAAGGAVHTRGLDFACDIYIWAPLAGTCGVLLLSLVITLYCKRGRKKLLYIFKQPFMRPVQTTQEEDGCSCRFPEEEEGGCELRVKFSRSADAPAYKQGQNQLYNELNLGRREEYDVLDKRRGRDPEMGGKPRRKNPQEGLYNELQKDKMAEAYSEIGMKGERRRGKGHDGLYQGLSTATKDTYDALHMQALPPR
